pKd: −log10 of the molar value.
Molecular target: syntrophin PDZ domain (UniProt Q61234)

VKESLV ligand (syntrophin PDZ ligand) (peptide)
pKd: 5.71

Source: PMC10528910
